Data as given in publication PMC9428257.

B1: yeast-displayed wild-type sBCMA (human BCMA extracellular domain, Met1-Ala54) [human] / human APRIL (a proliferation-inducing ligand) [human] (parent)
chain 1: MLQMAGQCSQNEYFDSLLHACIPCQLRCSSNTPPLTCQRYCNASVTNSVKGTNA
chain 2: AVLTQKQKKQHSVLHLVPINATSKDDSDVTEVMWQPALRRGRGLQAQGYGVRIQDAGVYLLYSQVLFQDVTFTMGQVVSREGQGRQETLFRCIRSMPSHPDRAYNSCYSAGVFHLHQGDILSVIIPRARAKLNLSPHGTFLGFVKL

Variants of: B1
Test: flow cytometry binding curve of yeast-displayed sBCMA
Settings: with human APRIL (a proliferation-inducing ligand) [human]

Kd | screen value | Variant
0.008 nM |  | chain 1 MLQMAGQCSQNEYFDGLLYACIPCQLRCSSNTPPLACQRYCNASVTNSVKGTDA
0.018 nM | 5860 A.U. | chain 1 MLQMAGQCSQNEYFDGLLYACIPCQLRCSSNTPPLACQRYCNASVTNSVKGTNA

Variants of: B1
Test: flow cytometry binding of yeast-displayed sBCMA
Settings: with human APRIL (a proliferation-inducing ligand) [human]; parent: 262

screen value | Variant
325 | chain 1 MLQMAGQCSQNEYFDGLLYACIPCQLRCSSNTPPLACQRYCNASVTNSVKGTNA
1310 | chain 1 MLQMAGQCPQDEYFDGLLYACIPCQLRCSSNTPPLACQRYCNASVTSSVKGTDA
102 | chain 1 MLQMAGQCSQNEYFDGLLHACIPCQLRCSSNTPPLACQRYCNASVTNSVKGTNA
